Paper PMC4805248
Blank lines part the entries; values can stand above or below the substance they belong to.

Key:
[1] = target: PgMntR (Porphyromonas gingivalis manganese transport regulator orthologue, PG1044), recombinant wild type (Porphyromonas gingivalis W50); experiment: AUC; sedimentation velocity; 10 or 60 uM protein in TBS (50 mM Tris-Cl, 150 mM NaCl, pH 7.5), 20 C, 40,000 rpm; without divalent metal, also with Mn2+ and with 2 mM TCEP; c(s) fit in SEDFIT
[2] = target: T1, PgMntR (Porphyromonas gingivalis W50 (W83 locus PG1044)) (UniProt Q7MVL0); experiment: EMSA; settings: EMSA: 1 nM biotinylated DNA, 700-1000 nM protein, 90 mM Bis-Tris borate pH 6.8 (1 mM TCEP, 5 mM DTT) or 10 mM Tris-Cl pH 7.5 or Tris-acetate pH 6.8, 50 mM KCl …
T1 sequence: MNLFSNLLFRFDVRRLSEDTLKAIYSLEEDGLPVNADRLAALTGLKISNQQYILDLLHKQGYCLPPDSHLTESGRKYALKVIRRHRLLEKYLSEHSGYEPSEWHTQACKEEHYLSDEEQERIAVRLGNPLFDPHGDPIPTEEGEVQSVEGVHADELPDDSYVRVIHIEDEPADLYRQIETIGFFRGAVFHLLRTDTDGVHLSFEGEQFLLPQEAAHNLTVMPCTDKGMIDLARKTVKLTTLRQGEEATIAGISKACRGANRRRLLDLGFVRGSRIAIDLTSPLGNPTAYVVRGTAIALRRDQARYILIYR

[3] = target: PgMntR ΔFeoA2 (PgMntR without the final C-terminal FeoA domain) (Porphyromonas gingivalis W50); experiment: AUC; sedimentation velocity; 10 or 60 uM protein in TBS (50 mM Tris-Cl, 150 mM NaCl, pH 7.5), 20 C, 40,000 rpm; without divalent metal, also with Mn2+ and with 2 mM TCEP; c(s) fit in SEDFIT
[4] = target: PgMntR D19M variant (Porphyromonas gingivalis W50); experiment: as above
[5] = target: PgMntR C108E variant (Porphyromonas gingivalis W50); experiment: as above
[6] = target: PgMntR 4Ala variant (D19A/C108A/E111A/H112A) (Porphyromonas gingivalis W50); experiment: as above

stoichiometry N [1]: 2
Substance: PgMntR (Porphyromonas gingivalis manganese transport regulator orthologue, PG1044), recombinant wild type (natural protein)

Substance: GATAGCGCAAAAATACTAACTAAACCAATGAATAAACGAGAAATACAATTTATTATTAAAGAGACTGTTGCACAATAACCCTCTCCCCCTCTCATATTGATCAAGACAGACACAAGCATTGATTTGACGAAGAAAGGAGAGCTTCATGCAATCTCTCTGCAAACCTCAAGTAATCTGAAAAACACTTAAGAATCAGCTCTGCGGCAAAAGACTTCAATGAAAGTCCTATAAAATAGTTGCAAACAGCTGATAGTTAGCGCATTGATGGGAGC (double strand) [FB1p (feoB1 promoter)]
binding [2]: no binding

Substance: PgMntR ΔFeoA2 (PgMntR without the final C-terminal FeoA domain) (domain or fragment)
stoichiometry N [3]: 2

Substance: PgMntR D19M variant (natural protein)
stoichiometry N [4]: 2

Substance: PgMntR C108E variant (natural protein)
stoichiometry N [5]: 2

Substance: PgMntR 4Ala variant (D19A/C108A/E111A/H112A) (natural protein)
stoichiometry N [6]: 2
